± gives the uncertainty stated by the source.
Assay: amyloid nucleation score (Sup35N fusion, yeast selection) (log enrichment); library NNK1; higher = more nucleation; inactive = no reads after selection
Summary of the method: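 Nucleation score: DiMSum log enrichment of output over input reads, centred on the mode score of non-aggregating sequences. Only sequences with at least 100 input reads were kept. Reads came from Illumina sequencing of plasmid inserts before and after 7 days of growth at 30°C without adenine and uracil, in psi-negative yeast expressing Sup35N fused to peptides of 20 random codons after 24 hours of induction with 100 μM copper sulfate.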

Row | Substance | amyloid nucleation score
1 | FNVHNWAQRTVEHGETLFRD | 1.57 ± 0.45
2 | HTTSICVRELPDQEVWTAVN | 0.109 ± 0.54
3 | EFGASRNAYTMRRILENGSA | -0.123 ± 0.38
4 | LLGVSAF | -0.718 ± 0.68
5 | MSMMLTRIAHTLSESWRTHW | -0.09 ± 0.97
6 | RACFRVIYWFSLLDKVGETV | -0.427 ± 1.1
7 | IIPPV | inactive
8 | FVVRLRLLANLWWYNCCKCS | 0.748 ± 0.43
9 | TCYLSDSLASY | -0.328 ± 0.54
10 | IRSQKCCFLHRWFLACFRII | -0.624 ± 1.1
11 | NDFYVLNASFSSRHSYAIRH | 1.1 ± 0.3
12 | FHVSDV | -0.125 ± 0.98
13 | YNSRRAWDACCFGLVPLWEC | 2.08 ± 0.3
14 | FLSYYTCILFPGDMHGSYLS | 7.226 ± 0.055
15 | ELGGVWN | 0.701 ± 0.58
16 | TMVCFVLDNCICKSLVTTCL | inactive
17 | DTGLRLD | 0.536 ± 0.54
18 | FGLYFRKISGLSPN | -0.211 ± 0.67
19 | IHWANPLTVSAFKVWVEDMV | 0.256 ± 0.29
20 | NESGSARFSPVDSYGFGSGC | -0.894 ± 0.75
21 | VYMMGGTLLRPYAILSYLDP | 0.465 ± 0.3
22 | TVDGTECCWVDTRNNSRMVK | -0.941 ± 0.78
23 | GNLVTCNSKYTRMEG | 0.166 ± 0.49
24 | MSGWG | 0.167 ± 0.27
25 | CTGIWSLLSCTTFRHIATVV | -0.469 ± 1.7

Row | Substance | amyloid nucleation score
26 | HIFHCGNRRFHTIKM | inactive
27 | FDSRRGEGALMSNDSSCERG | -0.185 ± 0.69
28 | GTMDMSQGYSQVCLDFIVHG | -0.626 ± 1.2
29 | SSSGMVDSVSYDLRGRVGLR | 0.29 ± 0.3
30 | FGYSAGHERMVHCVGLRSSG | 1.37 ± 0.69
31 | YQKTNPMELWLPSL | inactive
32 | EVVFNYTKHQVTIAV | inactive
33 | KAHRWDGRIFN | -1.27 ± 0.55
34 | EKLTKTYGTRFNKVKLFL | 0.294 ± 0.41
35 | YTIGTRPTMLRLFGVLRWAG | 1.19 ± 0.43
36 | DLLTWDCLEHDVDMLLVGPN | 0.152 ± 0.36
37 | YFTNPRCRLDAHGGFANQWW | -0.977 ± 1.4
38 | GIFHANLTMVWRHIEVKEGC | 0.696 ± 0.92
39 | FCDILQVLVCYGLLKRVLKV | -0.296 ± 0.3
40 | PGKSLIIHMCFSMSKTTENG | 2.52 ± 0.08
41 | HYSGIVWCSVREL | 1.72 ± 0.52
42 | YFSDKVSSAFT | 0.318 ± 0.37
43 | TQHRRLVSRSQEFNVTQLKW | 2.3 ± 0.27
44 | TWQLNIYMEKFSGVEKSSTV | 7.841 ± 0.053
45 | ECVNLLR | 0.471 ± 0.25
46 | YFYFLVNISFISIKGCLFMP | 0.121 ± 0.4
47 | YMTWL | 0.676 ± 0.44
48 | ASTSYPWKSGVMVGGKLKNP | 0.287 ± 0.53
49 | HGMWNTQVTVTWYTSADLFV | -0.093 ± 0.52
50 | IEFLAILLVAAMVQ | -0.345 ± 1.2

Row | Substance | amyloid nucleation score
51 | LYRCYESG | -0.378 ± 0.27
52 | EPIVLTVCCFSPKDVSQDLN | 0.749 ± 0.56
53 | NHLVG | 0.526 ± 1.4
54 | TLMGQWGWFSSVAYNNAGIV | -1.36 ± 0.86
55 | LRYCNMHHRHDSYGLSSYSY | 2.21 ± 0.11
56 | VVSFLLHPCDFRSWFCGCIW | -0.226 ± 0.93
57 | INQKSMMSSSDWRRWYFSGR | inactive
58 | HEIKIRHFIRMTGSGSYQSL | 0.176 ± 0.29
59 | SIEDHDYFLIAFY | -0.076 ± 1.6
60 | SLFLGVVHFAVRVSLGSVWG | -0.771 ± 0.82
61 | KPTLGVILTTTTFTRSCLYY | -0.252 ± 0.73
62 | CKKELFKT | 0.77 ± 0.66
63 | VWRSFKSMHSHRSNSNALWL | 1.96 ± 0.6
64 | IFVSHYNVR | 0.734 ± 0.25
65 | CTYVLWRGMKGFR | 0.05 ± 0.88
66 | CTADWLRDPRVGVRGPEGGG | 0.273 ± 0.3
67 | YSMSRMIIKVKLQRHVMNYS | -0.88 ± 0.73
68 | SNTTIFFSFNRVPTISLNHS | 3.82 ± 0.1
69 | FGFFWV | 0.099 ± 0.7
70 | FLGPIAIVGRHLMICIMQSH | 0.855 ± 0.43
71 | MRFSPVPCLNF | 0.353 ± 0.43
72 | CRMGMLYEISQC | 0.743 ± 0.76
73 | WEVSPIGVPYSY | -0.117 ± 0.57
74 | KYSEDLIRQEDVVRYMGTMS | -0.056 ± 0.24
75 | LLVCSMHFISMTPVMPNSTA | 2.12 ± 0.24

Row | Substance | amyloid nucleation score
76 | GGSGDTTSCMLFKRIVRR | inactive
77 | FVVAVGLIVFD | 0.027 ± 1.7
78 | VTRVLLVKWPYNTVETCGGA | -0.317 ± 0.33
79 | CTAWNVS | -0.657 ± 1.7
80 | QGSDSSNEATTAPLCRLRIW | 1.11 ± 0.94
81 | SIVMYDTNMTFRWSAYGRKN | 2.13 ± 0.096
82 | MVSDMLVKATVHPMYFMTLW | -0.34 ± 0.32
83 | IMKYPETGLAGRLLTGYTLS | 0.633 ± 0.61
84 | RRLLTCGGSPYRQLR | -0.078 ± 0.98
85 | SSWFFYQNIAVSYSNKAINF | 0.379 ± 0.17
86 | GVRYQALFLSAVL | 0.09 ± 0.21
87 | SYFVIFSGTM | inactive
88 | NDEQAVQFNIGETGVSYCFL | 0.162 ± 0.77
89 | LSYRSSRFGVS | 0.3 ± 0.64
90 | SVTHKTKCRLQFGVEMGQN | 1.13 ± 0.8
91 | IVNAGICPGNSRYSGNGATR | -0.162 ± 0.53
92 | IMSSL | -0.507 ± 0.73
93 | IHMLIVLSF | -0.103 ± 1.4
94 | KLSGCMISKILFSPCWRD | 5.896 ± 0.058
95 | CYRIDGSYYQLSCSYVYVRV | -0.837 ± 1.1
96 | DCYNLKQWRSCCDLAVASGG | 0.24 ± 0.88
97 | SACFVARSVVCDWGCAGYMF | 2.67 ± 0.28
98 | PFFTIKWCNFSSFIGYEPLL | -0.161 ± 0.31
99 | CRGNDKVLPKIGATNCWLST | inactive
100 | TVHTLSIFFSGRAFAANPFS | 2.36 ± 0.16

Row | Substance | amyloid nucleation score
101 | CPGNIIYTFPIDVPKHG | 0.641 ± 0.79
102 | AFVEVFHQGLLRSAMSQMVS | -0.378 ± 0.74
103 | DASLVGLQLSHHSILFHCSM | 0.021 ± 1.2
104 | FVKGRGNKTQVWHESVYKDA | -0.203 ± 0.54
105 | YWLSSVHSQSRVAK | -0.298 ± 1.7
106 | RKSVFNTLLFVE | 0.569 ± 0.33
107 | QLSRSVWRRMRRQQKHPLTG | 1.62 ± 0.81
108 | YIYNWRYN | 1.71 ± 0.54
109 | RDIRWITQEADGYLELRHSF | -0.085 ± 0.73
110 | AQVNLIPNLRETLYDPAISR | 0.665 ± 0.55
111 | NLFLMLVDLVSLGTTI | 2.08 ± 0.51
112 | NSPGCKCRSKGLISINST | inactive
113 | DMLFPAMRYAVHDVSVSAGN | 0.582 ± 0.64
114 | GNTWNIMFNICCLQGIECCL | 7.349 ± 0.051
115 | MLACDVISPFCYVNWKRLCR | 2.43 ± 0.15
116 | RMFCPHCDYLVSVFSWNPRC | 1.54 ± 0.57
117 | FGAVVADGMKLFSVSFS | -0.711 ± 0.52
118 | NYVYR | -0.742 ± 1.2
119 | GALFWVIPIMLLMRSGLLDP | 0.498 ± 0.3
120 | DGKHWTDYLVMY | 1.5 ± 0.47
121 | YGISVMIYDRPAISACQIKH | 2.71 ± 0.11
122 | RYRWRL | inactive
123 | HIKHSMMFGTYTK | -1.2 ± 0.72
124 | NKYNSYKKNYPKRIDWSGLN | -0.983 ± 1.4
125 | FFLILRVRLYCTSICQAYAN | 0.451 ± 0.48

Row | Substance | amyloid nucleation score
126 | CTGSCVRRVCGGFIEADIRY | -0.28 ± 0.41
127 | KLEMARAIKFFGYDTLETAF | 1.1 ± 0.71
128 | MRMRKNEHYE | 0.476 ± 0.46
129 | SLVSYSVHANFCVFIWTNGS | 1.25 ± 0.44
130 | YIWAFLVGFVLTHYCSPHPD | -1.07 ± 0.68
131 | VMTVMVFMRYRGRFVYG | -0.041 ± 0.98
132 | DYRGYFKSDIYSNFLTFLPG | -0.663 ± 0.22
133 | FGFSKWSSMLIRHQPYDLFI | -1.1 ± 1
134 | SDVVGGYWEDKTSSYGSRLM | 0.423 ± 0.52
135 | VSGESDSYRVGFSEACLRKL | -0.849 ± 0.65
136 | GSHSGVFRVIKYQILFEVGM | inactive
137 | RMIDMGTDTVFCLMSFARIN | -0.354 ± 0.22
138 | SLLFY | inactive
139 | CPVCNTESTCRYPRVGKWDT | 3.01 ± 0.17
140 | SLDLMCGHQPRSCMVLDSRV | 0.983 ± 0.97
141 | TMGVTIYGCWCDLNTSLVFG | -0.104 ± 0.24
142 | RRWFYLGAFVYKSNTIDVGV | -0.214 ± 0.35
143 | YSVQIMSKNITWVKVCPASK | 5.19 ± 0.071
144 | YFKAMEVTFSFWH | 0.491 ± 0.23
145 | FLLNSPQNASYSPHRRLAFD | -1.38 ± 0.92
146 | TEGFGW | 1.28 ± 0.35
147 | TVVHPFSYA | 0.487 ± 0.49
148 | YVGIPQCGDLKRRPLA | 0.116 ± 1.1
149 | LLLDLILY | -0.505 ± 0.72
150 | FCMVDYWVLVPCDEIGTDVV | 0.116 ± 0.46

Row | Substance | amyloid nucleation score
151 | MLWRYKRCNFARMFNLRVYV | -0.822 ± 0.65
152 | SNYDIWRPILSRWSDREGWV | 1.34 ± 0.36
153 | GFVEYYRVLTYDKM | 1.22 ± 0.88
154 | HWWYFCINP | inactive
155 | QFSLPLCGYKRRHNGSFAEM | -1.14 ± 2.1
156 | NLIWMVKYCYIIFRIPTTCL | 1.77 ± 0.42
157 | LMFGLAMVNENPRGLSELRR | 0.065 ± 0.27
158 | LMWSMPNGTSYGNGPVEWTG | -0.515 ± 0.81
159 | TTIYRY | 0.234 ± 0.9
160 | WFVNIEGREEWKYHKGCEPK | 0.758 ± 0.49
161 | GTLGSWSIIISLIRHSECLC | -0.659 ± 0.46
162 | IMTSWFLPQSCQNDWDKLY | -0.012 ± 0.2
163 | EERVFVYRLWYQSLVRHYEL | -0.204 ± 0.41
164 | SLSKLAICMWSYIFNMSYFC | -0.139 ± 0.81
165 | FNFCHE | -0.392 ± 0.6
166 | CPLEDLIKRLNHLYVH | 0.21 ± 0.6
167 | GKNTYVCVGSSASSFWGSLL | 0.86 ± 0.77
168 | AVCDKVLRSVEWIFPGLNDS | -0.496 ± 0.51
169 | RFVWKDDTHQAIGTFLMSQG | 1 ± 0.54
170 | RGCPAFDNVTSYDESSEWSY | 0.365 ± 0.62
171 | VSMATAVF | 1.22 ± 0.64
172 | GSIWED | -0.778 ± 0.64
